For 1 molecule, stoichiometry N results are on record in PMC4975591.

As a reminder, the stoichiometry N is the number of molecules, sites or subunits per partner or assembly.

The target in this assay is T1, Full-length cysteine string protein CSP(1-198), Q9H3Z4.
T1 chain: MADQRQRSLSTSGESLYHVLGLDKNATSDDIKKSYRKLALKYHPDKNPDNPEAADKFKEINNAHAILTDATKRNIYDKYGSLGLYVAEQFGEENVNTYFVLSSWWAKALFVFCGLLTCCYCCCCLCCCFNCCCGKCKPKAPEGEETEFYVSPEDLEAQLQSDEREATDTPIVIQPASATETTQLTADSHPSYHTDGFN
Put plainly: AUC; sedimentation velocity, 50,000 rpm, 20.1°C, 9 hr, absorbance at 279 nm; self-association of purified recombinant protein. The conditions noted are these: remark: other sources report otherwise.

B1: Full-length cysteine string protein CSP(1-198), Q9H3Z4 1-198 (natural protein)
chain: T1 chain
As to B1, the stoichiometry N was above 10 subunits.
